{"source": "paper PMC8052441", "about": "“Structural insight into the molecular mechanism of p53-mediated mitochondrial apoptosis” (Nature Communications, 2021)", "binders": {"B1": {"name": "BCL-xL (human, lacking the α1-α2 loop 45-84 and the 22 C-terminal residues), His-tagged (domain or fragment, UniProt Q07817-1 1-211, looked up)", "chain": "MSQSNRELVVDFLSYKLSQKGYSWSQFSDVEENRTEAPEGTESEAVKQALREAGDEFELRYRRAFSDLTSQLHITPGTAYQSFEQVVNELFRDGVNWGRIVAFFSFGGALCVESVDKEMQVLVSRIAAWMATYLNDHLEPWIQENGGWDTFVELYGNNAAAESRKGQERFN", "notes": "human BCL-xL lacking the disordered α1-α2 loop (amino acids 45-84) and the 22 C-terminal residues (transmembrane region); Cloned into pET-28a; also called BCL-xL-C; BCL-xL-D"}}, "key": {"[1]": {"target": "T1, p53-DT (human p53 DBD and tetramerization domain, amino acids 92-360) (human, UniProt P04637 92-360)", "T1 construct": "human p53, DBD and tetramerization domain, amino acids 92-360; Tetramer in solution by gel filtration and cross-linking; also called wild-type p53-DT; not shown: His6, N-terminal, cleaved", "T1 sequence (P04637 92-360)": "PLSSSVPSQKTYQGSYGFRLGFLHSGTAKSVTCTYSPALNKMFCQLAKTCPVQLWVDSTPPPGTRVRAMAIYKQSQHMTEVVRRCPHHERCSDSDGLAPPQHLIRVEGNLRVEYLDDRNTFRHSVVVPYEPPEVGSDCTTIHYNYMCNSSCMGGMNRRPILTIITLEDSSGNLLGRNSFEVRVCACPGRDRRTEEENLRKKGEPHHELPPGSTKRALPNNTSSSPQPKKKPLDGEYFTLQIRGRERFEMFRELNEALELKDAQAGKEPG", "assay": "ITC; p53 protein (100 µM) titrated into 10–30 µM BCL-xL or BCL-2; 25 °C; 50 mM Tris pH 7.0, 40 mM NaCl, 1 mM TCEP", "conditions": "both partners purified"}, "[2]": {"target": "T2, p53-DBD (human p53 DNA-binding domain, amino acids 92-292) (human, UniProt P04637 92-292)", "T2 construct": "Cloned into pMAL-c5x; In the crystal (PDB 6LHD) this stretch stood fused to BCL-xL; the rows of the structure use m1 and m3 for the two halves; also called p53-A; p53-B; source: E. coli BL21 (DE3), purified (amylose, PreScission, Mono S)", "T2 sequence (P04637 92-292)": "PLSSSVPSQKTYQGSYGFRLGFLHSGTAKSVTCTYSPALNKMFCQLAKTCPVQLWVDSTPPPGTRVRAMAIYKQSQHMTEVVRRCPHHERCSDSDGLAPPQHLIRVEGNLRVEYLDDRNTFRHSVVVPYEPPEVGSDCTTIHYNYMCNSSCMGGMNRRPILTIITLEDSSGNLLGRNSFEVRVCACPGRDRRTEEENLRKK", "assay": "ITC; p53 protein (100 µM) titrated into 10–30 µM BCL-xL or BCL-2; 25 °C; 50 mM Tris pH 7.0, 40 mM NaCl, 1 mM TCEP", "conditions": "both partners purified"}}, "data": [{"binder": "B1", "values": [{"measurement": "Kd", "setting": "[1]", "value": 4.1, "unit": "µM"}, {"measurement": "Kd", "setting": "[2]", "value": 37.4, "unit": "µM"}]}]}
